The nanobody polyreactivity screen of Harvey et al. (2022)

Assay: yeast display, Sf9 membrane polyspecificity reagent, FACS + sequencing; frameworks hold sequencing errors
Method in brief: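 Sorting gates, low and high (top ~1%), were placed on anti-HA fluorescence to track expression and on streptavidin fluorescence to track reagent binding. A clone's polyreactivity label is taken from the gate it came out of. The reagent was 10% biotinylated, detergent-solubilized Sf9 membrane, applied for 1 hour at 4 °C to galactose-induced yeast display cells.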
In the case of “QVQLVESGGGLVQAVGSLRLSCAASGFTYSPNAMGWYRQAPGKERELVATISWNGGRTHYADSVKGRFTISRDNAKNTVYLQMNSLKPEDTAVYDCNVVRATGRYYYWGQGTQVTVSS”, the “polyreactivity (PSR sort gate)” value is reported as “high polyreactivity”. For “QVQLVESGGGLVQAGGSLRLSCAASGFNFWRYAMGWYRQAPGKERELVASITSTGGSTYYADSVKGRFTISRDNAKNTVYLQMNSLKPEDTAVYYCAADTFVWADWSWHYYWGQGTQVTVSS”, the “polyreactivity (PSR sort gate)” value was “high polyreactivity”. In the case of “QVQLVESGGGLVQAGGSLRLSFAASGITFPYYAMGWYRQAPGKEREFVAAISSSGGSTYYADSVKGRFTISRDNAKKTVYLKMHCLKAEDTEVYYCAAGVYGRSSYSKPVLYEYWGQGTQVTVSS”, the “polyreactivity (PSR sort gate)” value is reported as “high polyreactivity”. For “QVQLVESGGGLVQAGGSLRLSCAATGGIFDYYAMGWYRQAPGKERALVAAIRGGGSTNYADSVKGRFTISRDNAKNTVYLQMNSLKPEDTAVYYCAKDSPFTSVTVLAPIIYDSWGQGTQVTVSS”, the “polyreactivity (PSR sort gate)” value was “low polyreactivity”. In the case of “QVQLVESGGGLVQAGGSLRLSCAASGSILGANVMGWYRQAPGKERELVASISKSGGNTFYADSVKGRFTISRDNAKNTVYLQLNRLKPEDTAVYYCAKRAHRYSYRYTYDYWGQGTQVTVSS”, the “polyreactivity (PSR sort gate)” value is reported as “low polyreactivity”. In the case of “QLQLVESGGGLVQAGGSLRLSCAASGNIFNYNAMGWYRQAPGKERELVAAISFSGGSTYYADSVKGRFTISRDNAQNTVYLQMNSLKPEDTAVYYCAKAERNYFEDWGQGTQVTVSS”, the “polyreactivity (PSR sort gate)” value is reported as “high polyreactivity”. In the case of “QVQLVESGGGLVQAGGSLRLSCAASGRTFDYYAMGWYRQAPGKERELVAAITKDGGSTYYADSVKGRFTISRDNAKNTVYLQMNSLIPEDTAVYYCAADGPPQYYDPIHYDYWGQGTQVTVSS”, the “polyreactivity (PSR sort gate)” value is reported as “low polyreactivity”. In the case of “QVQLVESGVGLVQAGGSLRLSCSASGSTFFGNGMGWYRQAPGKERELVAAISGGGSTHYADSVKGRFTISRDNAKNTVYLQMNSLKPEDPAVYYCSPSRDTVGRGPIQRDYWGQGTQVTVSS”, the “polyreactivity (PSR sort gate)” value is reported as “low polyreactivity”. In the case of “QVQLVESGGGLVQAGGSLRLSCAASGLIFVSYAMGWYRQAPGKERELVAAISSGGSTYYADSVKGRFTISRDNAKNTVYLQINSLKPEDTAVYYCAAEYVFRGYVGYDYWGQGTQVTVSS”, the “polyreactivity (PSR sort gate)” value is reported as “low polyreactivity”. For “QVQLGESGGGLVQAGGSLRLSCAASGRIFSYYAMGWYRQAPGKERELVATIDRSGDPTSYADSVKGRFTISRDNAKNTVYLQMNSLKPEDTAVYYCAATSKRARYDSWGHGTQVTVSS”, the “polyreactivity (PSR sort gate)” value was “high polyreactivity”. With “LVQLQESGGGLVQAGGSLRLSCAASGTISPGGYMGWYRQAPGKERELVASINVGGSTNYADSVKGRFTISRDNAKNTVYLQMNSLKQEDNAVYYCAVWGRNRLQLSYWGQGTQVTVSS” the “polyreactivity (PSR sort gate)” value was “low polyreactivity”. In the case of “QVQLVESGGGLVQAGGSLRLSCPASGRIYGYYVMGWYRQAPGKERELVASITSGGSTYYADSVKRRFTISRDNAKYTVYFQMNSLKPEDTAVYDCAARRAWSWKIYDYWGQGTQVTVSS”, the “polyreactivity (PSR sort gate)” value is reported as “high polyreactivity”. For “QVQLVESGGGLVHAGGSLRLSCAAYGRTFYTYAMGWYSQAPGKVRELVAAISSSGSTYYADSVKGRFTISRDNAKYTVYLQMNSLKPEDTAVYYCNARTSRYRRGGDSWGQGTQVTVSS”, the “polyreactivity (PSR sort gate)” value was “high polyreactivity”. For “QVQLVESGGGLVQAGGSLRLSCAASGRTLARNAKGWYRQAPGKERELVASINGRTTRTYYADSVKGRFTISRDNAKNTVYLQMNSLKPEDTAVYYCAADPPGYVYGKRYYWGQGTQVTVSS”, the “polyreactivity (PSR sort gate)” value was “high polyreactivity”. In the case of “QVQLVESGGGLVQAGGSLRLSCAASGRTFVHNDMGWYRQAPGKERQLVAAINVSDGSTYYADSVKGRFTISRDNAKNTVYFQMNSLKPEDTAVYYCAKASYIIFRFEYRSGYDYWGQGTQVTVSS”, the “polyreactivity (PSR sort gate)” value is reported as “low polyreactivity”. In the case of “QVQLVESGGGLVQAGGSLRLSCAASGSTFAGNAMGWYRKAPGKERELVAAITFSGGRTDYADSVKGRFTISRDNAKNTVYLQMNSLNPEDTSVYYCAAPADDTVHYQNYYWGQGTQVTVSS”, the “polyreactivity (PSR sort gate)” value is reported as “low polyreactivity”. For “QVQLVESGGGLVQAGGSRRLSCAASGSIFIPYVMGWYRQAPGKERELVAVITSGGDTYYADSVKGRFTISRDNAKNTVYLQMNSLKPEDTAVYYCNATFWYPPWWYEYDYWGQGTQVTVSS”, the “polyreactivity (PSR sort gate)” value was “low polyreactivity”. For “QVQLQESGGGLVQAGGSLRLSCAASGTITVLYKMGWFRQAPGKEREFFASINYGTSTYYADSVKGRFTVSRDSAKNTVYLQMISLKPEDTAVYYGAAAYRWQDVYRYWGQVTQVTVSS”, the “polyreactivity (PSR sort gate)” value was “low polyreactivity”. In the case of “QVQLVESGGALVQAGGSLRLSCAASGIIFYDYAMGWYRPAPGKERELVAAITWTGSSTYYADSVKGRFTISRDNAKITVYRQMNCLKQEDTAVSYCAADYWEYSPYEDLTYDYWGQGTQVTVSS”, the “polyreactivity (PSR sort gate)” value is reported as “high polyreactivity”. In the case of “QVQLVESGGGLVQAGGSLRLSCAASGGIFYSNAMGWYRPAPGKERELVAAISRDGTITYYADSVKGRFTISRDNAKNTVYLQMNSLKPEDTAVYYCAADASIQSWYSIYDYWGQGTQVTVSS”, the “polyreactivity (PSR sort gate)” value is reported as “high polyreactivity”. With “QVQLVESGGGLVQAGGSLRLSCAASGRTLLPNAMGWYRQAPGKERELVADISTSDGSTRYADSVKGRFTISRDNAKNTVYLQMNSLKPEDTAVYYCAAGSEYYSSGGVRFSFYYWGQGTQVTVSS” the “polyreactivity (PSR sort gate)” value was “low polyreactivity”. For “QVQLVESGGGLVQAGGSLRLSCAASGSISAVNAMGWYRQAPGKERELVAAITYSGGSTYYADSVKGRFTISRDHAQNTVYLQINSLKPEDTAVYNCAARARYPNWTYYYWGQGTQVTVSS”, the “polyreactivity (PSR sort gate)” value was “high polyreactivity”. With “QVQLVESGGGLVQAGGSLRLSCAASGFIFVVYAMGWYRQAPGKERELVATISSGGGTYYADSVKGRFTISRDNAKNSVYFQMNSLKPEDTAVYYCAARRSRLYHFGGNNYWGQGTQVTVSS” the “polyreactivity (PSR sort gate)” value was “high polyreactivity”. With “QVQLVESGGGLVQAGGSLRLSCAASGLTFNVNAMGWYRQAPGKERELVARINTSGGSTSYADSVKGRFTISRDNAKNTVYLQMNSLKPEDTAVYYCAADRARYYSEYDYWGQGTQVTVSS” the “polyreactivity (PSR sort gate)” value was “low polyreactivity”. With “QVQLVESGGGLVQAGGSLRLSCAASGRIFWDNALGWYRKAPGTERELVAAISDSVVITYYADSVKGRFTISRDNAKNTVYLQMNSLKPEDSAVYYCAAGGWPYSGGWFFQPNYDYWGQGTQVTVSS” the “polyreactivity (PSR sort gate)” value was “low polyreactivity”. With “QVLLVESGGGLVQAGGSLRLSCAASGYIFNRYVMGWTIQAPGKERELVAAIYIRGGSTFYSDSVKGCFTISRDNAKYTVYLQMNSLKPDDSAVYYCDDGRYGDYGYWGQGTQLTVSS” the “polyreactivity (PSR sort gate)” value was “high polyreactivity”. For “QVQQQESGGGLVQAVGSLRLSCAASGTIIQLTVMGRYRQAPGKERELVASIDYGGNTNYADSVKGRFTISRDNAKNTVYLHMNSLKPEDTAVYYCAKESRPAEGDSGYDYWGQGTLVTVSS”, the “polyreactivity (PSR sort gate)” value was “low polyreactivity”. With “QVQLVESGGGLVQAGGSLRLSCAASGSIFQRNAMGWYRQAPGKERELVAAISWSGGSTYYADSVKGRFTISRDNAKNSVSLQMNSVKPEDTAVYYCARYYRPYDWGQGTQVTVSS” the “polyreactivity (PSR sort gate)” value was “high polyreactivity”. For “QVQLVESGGGLVQAGGSLRLSCAASGRIFRWYTMGWYRQAPGKEREFVAAITWSDTSTSYADSVKGRFTISRDNAKKTVYLQMNSLKPEDTAVYYCNAATRSSVTFGWYIEYDYWGQGTQVTVSS”, the “polyreactivity (PSR sort gate)” value was “low polyreactivity”. In the case of “QVQLVESGGGLVQAGGSLRLSCAASGLIFSVYAMGWYRQAPGKERELVAAISWSGSTYYADSVKGRFTISRDNAKNTVYLQMNSLKPEDTAVDYCAAEYDYDHFYWMDYWGQGTQVTVSS”, the “polyreactivity (PSR sort gate)” value is reported as “high polyreactivity”. In the case of “QVQLVESGGGLVQAGGSLRLSCAASGLTFVWYGMGRYRQAPGKERELVAAITRGGSTYYADSVKGRFTISRDNAKNTVYLQMNSLKPEDTAVYYCAARRWERRVRPGYYPYDYWGQGTQVTVSS”, the “polyreactivity (PSR sort gate)” value is reported as “high polyreactivity”. In the case of “QVQLVESGGGLVQAGGSLRLSCAASGFTIQRYAMGWSRQAPGKERELVAAITSGGSTYYADSVKGRFTISRDNAKNTVYLQMNSLKPEDTAVYYCAAYYRGRAYISYGYWGQGTQVTVSS”, the “polyreactivity (PSR sort gate)” value is reported as “high polyreactivity”. In the case of “QVQLVESGGGLVQAGGSLRLSCAASGFIFKYNAMGWYRQAPGKERELVAAISRSGGRTYYADSVKGRFTISRDNAKNTVSLQMNSLKPEDTAVYYCAARVGVSGFEYDYWGQGTQVTVSS”, the “polyreactivity (PSR sort gate)” value is reported as “high polyreactivity”. For “QVQLVESGGGLVQAGGSLRLSCAASGLTFRVYAMGWYRQAPGKERELVASISRTGSTTYADSVKGRFTISRDNAKNTVYLQMNSLKPEDTAVYYCNARYYVLLWDSLAREYWGQGTQVTVSS”, the “polyreactivity (PSR sort gate)” value was “high polyreactivity”. In the case of “QFQLVESGGGLDQAVGSLRLSCAASGSIFYPNVMGGYREAPGKEREMVAAIRTSGGSTYYADSVQGRFTISRETAKNTVYLQMNSLKPEDTAVYYCAAKRTGNGYPRSGYYRYEYWGHGTQVTVSS”, the “polyreactivity (PSR sort gate)” value is reported as “high polyreactivity”. With “QVQLVESGGGLVQAGGSLRLSCAASGRIFDLNAMGWYRQAPGKERELVAAITWSGDSTYYADSVKGRFTISRDNAKNTVYLQMNSLNPEDTAVYYCAAASRTSYSWVDYEFDYWGQGTQVTVSS” the “polyreactivity (PSR sort gate)” value was “low polyreactivity”. With “QVQLVESGGGLVQAGGSLRLRCAASGRIFPYYAMGWYRQSPGKERELVAAIRWSGGDTYYADSVKGRFTISRDNAKNTVYLQMNSLKPEDTAVYYCAAKAYSYSRWGYYGYYYWGQGTQVTVSS” the “polyreactivity (PSR sort gate)” value was “high polyreactivity”. For “QVQLVESGGGLVQAGGSLSLSCASTGFIITQNAMGWYRQAHGKERYLVAAISWRAGSTYYADSVKGRFTISRDNAKNTVYLQMNSLKPEDTAVYYCATRQTKYSNYRGDYWGQGTQVTVSS”, the “polyreactivity (PSR sort gate)” value was “high polyreactivity”. With “QVQLVESGGGLVQAGGSLRLSCAASGFTFSVYAMGWSRQAPGKERELVAAITSDGITNYADSVKGRFTISRDNAKNTVYLQMNSLKPEDTAVYYCNADPGYVRGYDYWGQGTQVTVSS” the “polyreactivity (PSR sort gate)” value was “low polyreactivity”. For “QVQIVESGGGLVQAGGSLRLSCAASGSIFTFYAMGWYRQAPGKERELVATINRIGGNTYYADSVKGRFTISRDNAKNTVYLQINSLKPEDTAVYYCAAKPTYRGYGYGSWGQGTQVTVSS”, the “polyreactivity (PSR sort gate)” value was “low polyreactivity”. For “QVQLVESGGGLVQAGGSLRLSCAASGSTFYRYAMGWYRQAPGKERELVARIDWSDGSTNYADSVKGRFTISRDNAKNTVYLQMNSLKPEDTAVYYCAADTYSDTYDGEYEYWGQGTQVTVSS”, the “polyreactivity (PSR sort gate)” value was “low polyreactivity”. For “QVQLVESGGGLDQAGGSLRLSCAASGRTFYYYAMAWYRQAPRTERELVAAIRRSGSSTYYADSVKGRFTISRDNAKNTVYLQMNSLKPEDTAFYYCAAAVYQRARYYWGQGTQVTVSS”, the “polyreactivity (PSR sort gate)” value was “high polyreactivity”. In the case of “QVQLVESGGGLVQAGGSLRLSCAASGFTFSVYAMGWYRQAPGKERELVADIDWSGGSTYYADSVKGRFTISRDNAKNTVYLQMNSLKPEDTAVYYCAADYYYPDSYVQGTSGEYWGQGTQVTVSS”, the “polyreactivity (PSR sort gate)” value is reported as “low polyreactivity”.
